The results in this text go back to patent US20130243743A1 (ACCELERON PHARMA, published 2013).

Substitutions are numbered along the chain they refer to.

Sequences and labels used below:
B1: ActRIIB(21-131)-hFc (Fc fusion, not shown: a dimerising Fc or GST)
chain: RGEAETRECIYYNANWELERTNQSGLERCEGEQDKRLHCYASWRNSSGTIELVKKGCWLDDFNCYDRQECVATEENPQVYFCCCEGNFCNERFTHLPEAGGPEVTYEPPPT
B2: ActRIIB(20-132)-hFc (Fc fusion, not shown: a dimerising Fc or GST)
chain: GRGEAETRECIYYNANWELERTNQSGLERCEGEQDKRLHCYASWRNSSGTIELVKKGCWLDDFNCYDRQECVATEENPQVYFCCCEGNFCNERFTHLPEAGGPEVTYEPPPTA
B3: ActRIIB(24-131)-hFc (Fc fusion, not shown: a dimerising Fc or GST)
chain: AETRECIYYNANWELERTNQSGLERCEGEQDKRLHCYASWRNSSGTIELVKKGCWLDDFNCYDRQECVATEENPQVYFCCCEGNFCNERFTHLPEAGGPEVTYEPPPT
B4: ActRIIB(20-134)-hFc (Fc fusion, not shown: a dimerising Fc or GST)
chain: GRGEAETRECIYYNANWELERTNQSGLERCEGEQDKRLHCYASWRNSSGTIELVKKGCWLDDFNCYDRQECVATEENPQVYFCCCEGNFCNERFTHLPEAGGPEVTYEPPPTAPT
B5: ActRIIB(22-131)-hFc (Fc fusion, not shown: a dimerising Fc or GST)
chain: GEAETRECIYYNANWELERTNQSGLERCEGEQDKRLHCYASWRNSSGTIELVKKGCWLDDFNCYDRQECVATEENPQVYFCCCEGNFCNERFTHLPEAGGPEVTYEPPPT
B6: ActRIIB(20-131)-hFc (Fc fusion, not shown: a dimerising Fc or GST)
chain: GRGEAETRECIYYNANWELERTNQSGLERCEGEQDKRLHCYASWRNSSGTIELVKKGCWLDDFNCYDRQECVATEENPQVYFCCCEGNFCNERFTHLPEAGGPEVTYEPPPT
B7: ActRIIB(23-131)-hFc (Fc fusion, not shown: a dimerising Fc or GST)
chain: EAETRECIYYNANWELERTNQSGLERCEGEQDKRLHCYASWRNSSGTIELVKKGCWLDDFNCYDRQECVATEENPQVYFCCCEGNFCNERFTHLPEAGGPEVTYEPPPT
B8: ActRIIB(20-128)-hFc (Fc fusion, not shown: a dimerising Fc or GST)
chain: GRGEAETRECIYYNANWELERTNQSGLERCEGEQDKRLHCYASWRNSSGTIELVKKGCWLDDFNCYDRQECVATEENPQVYFCCCEGNFCNERFTHLPEAGGPEVTYEP
B9: Soluble ActRIIB-Fc +15tail (Fc fusion)
chain: B4 chain with R45A
notes: not shown: linker and Fc

The first assay deals with T1, Growth and Differentiation Factor-11 (GDF11) (UniProt O95390 299-407).
T1 sequence (looked up): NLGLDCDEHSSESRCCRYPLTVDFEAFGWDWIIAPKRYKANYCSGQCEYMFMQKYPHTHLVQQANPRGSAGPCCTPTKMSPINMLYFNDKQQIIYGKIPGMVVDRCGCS
Description: cell-based or functional assay.
Settings: not given
Molecule B1 showed an IC50, inhibition of ligand signalling, A-204 reporter gene assay (conditioned media) of 0.121 µg/mL.

In the case of B2, the IC50, inhibition of ligand signalling, A-204 reporter gene assay (conditioned media) turned out to be 0.087 µg/mL.

On to B3, for which the IC50, inhibition of ligand signalling, A-204 reporter gene assay (conditioned media) is 0.069 µg/mL.

For B4, the “IC50, inhibition of ligand signalling, A-204 reporter gene assay (conditioned media)” value stood at 0.045 µg/mL.

The molecule B5 gave an IC50, inhibition of ligand signalling, A-204 reporter gene assay (conditioned media) of 0.071 µg/mL.

Turning to B6, the IC50, inhibition of ligand signalling, A-204 reporter gene assay (conditioned media) came to 0.183 µg/mL.

B7: the IC50, inhibition of ligand signalling, A-204 reporter gene assay (conditioned media) came to 0.06 µg/mL.

With B8, the IC50, inhibition of ligand signalling, A-204 reporter gene assay (conditioned media) amounted to 0.13 µg/mL.

Still in this assay, the particulars now being: record 2.
Take B6: the IC50, inhibition of ligand signalling, A-204 reporter gene assay (conditioned media) is 0.12 µg/mL.

The next assay deals with T2, Activin A (UniProt P08476 311-426).
T2 sequence (looked up): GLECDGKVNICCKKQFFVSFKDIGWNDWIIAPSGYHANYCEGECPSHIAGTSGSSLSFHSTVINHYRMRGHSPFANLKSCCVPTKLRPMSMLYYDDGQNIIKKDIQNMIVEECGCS
Description: cell-based or functional assay.
Settings: not given
As for B1, the IC50, inhibition of ligand signalling, A-204 reporter gene assay (conditioned media) turned out to be 0.325 µg/mL.

The molecule B2 had an IC50, inhibition of ligand signalling, A-204 reporter gene assay (conditioned media) of 0.032 µg/mL.

Molecule B3 had an IC50, inhibition of ligand signalling, A-204 reporter gene assay (conditioned media) of 0.105 µg/mL.

With B4, the “IC50, inhibition of ligand signalling, A-204 reporter gene assay (conditioned media)” value was 0.022 µg/mL.

The molecule B5 gave an IC50, inhibition of ligand signalling, A-204 reporter gene assay (conditioned media) of 0.1 µg/mL.

For B6, the IC50, inhibition of ligand signalling, A-204 reporter gene assay (conditioned media) came to 0.201 µg/mL.

For the molecule B7, the IC50, inhibition of ligand signalling, A-204 reporter gene assay (conditioned media) was found to be 0.043 µg/mL.

Consider B8, for which the IC50, inhibition of ligand signalling, A-204 reporter gene assay (conditioned media) is 0.158 µg/mL.

The assay is the same for the next values; noted with them: record 2.
In turn, B6 registered an IC50, inhibition of ligand signalling, A-204 reporter gene assay (conditioned media) of 0.044 µg/mL.

A further assay addresses T1, Growth and Differentiation Factor-11 …. Put plainly: Biacore SPR; ligand coupled to the device, receptor flowed (table reproduced from WO2006/012627); +15tail variant; ligand coupled to the device, receptor flowed over it (data from WO2006/012627).
Settings: not given
As a reminder, the Kd is a measure of binding affinity in units of concentration. Read a low Kd as tighter binding. Regarding B9, the Kd is 19 nM.

For a further assay, the target named is T2, Activin A. Described as above.
Settings: not given
As for B9, the Kd was ~26 nM.
